T1: mRNF43 ECD
T1 construct: The mouse half of m18, which leaves the species open; also called extracellular domain of mouse RNF43
T1 chain: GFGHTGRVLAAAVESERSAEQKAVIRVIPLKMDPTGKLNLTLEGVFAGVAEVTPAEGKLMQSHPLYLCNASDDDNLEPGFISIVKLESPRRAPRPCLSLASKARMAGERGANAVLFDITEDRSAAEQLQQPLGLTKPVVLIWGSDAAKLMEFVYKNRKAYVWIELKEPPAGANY

T2: extracellular domain (ECD) of human GRAIL (RNF128) (human, UniProt Q8TEB7 39-207, limits assumed)
T2 construct: extracellular domain; also called GRAIL ECD
T2 sequence (looked up): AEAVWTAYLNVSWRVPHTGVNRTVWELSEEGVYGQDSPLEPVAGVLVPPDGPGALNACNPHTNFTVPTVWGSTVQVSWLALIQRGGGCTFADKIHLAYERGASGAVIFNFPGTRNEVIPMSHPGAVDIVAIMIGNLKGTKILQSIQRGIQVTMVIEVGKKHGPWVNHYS


Experiments:
mRNF43 ECD = molecular target: T1, mRNF43 ECD; experiment: SPR (Biacore), ligand mRNF43 ECD, analyte RNF43 -A4
[1] = molecular target: T3, extracellular domain (ECD) of human or mouse RNF43 (human or mouse); experiment: SPR (Biacore), nanobody on ECD
T3 construct: extracellular domain; also called RNF43 ECD

[2] = molecular target: GODZILLA (RNF167) on Ba/F3 cells (mouse, UniProt Q91XF4); experiment: flow cytometry, surface staining of Ba/F3 cells (mouse by legend paragraph 54, sheet prints HUMAN) with streptavidin-APC tetramerized nanobody, titration up to 200 nM; control BIOTIN
[3] = molecular target: T4, extracellular domain (ECD) of human GODZILLA (RNF167) (human, UniProt Q9H6Y7 25-173, limits assumed); experiment: SPR (Biacore), titration at equilibrium, nanobody on ECD
T4 construct: extracellular domain; also called GODZILLA ECD

[4] = molecular target: T2, extracellular domain (ECD) of human …; experiment: SPR (Biacore), ligand hRNF128 ECD (GRAIL), analyte GODZILLA-A5 [CONT. 3]

Binder	binding result (mRNF43 ECD)	Kd [1] [nM]	binding result [2]	Kd [3] [nM]	binding result [4]
RNF43 VHH of SEQ ID NO: 10 (VHH, also called RNF43 nanobody) VHH: QVQLQESGGGLVQAGGSLRLSCAASGTIFDDLLMGWYRQAPGKERELVAAIGAGATTNYADSVKGRFTISRDNAKNTVYLQMNSLKPEDTAVYYCAAWWLYYKGDWALYLYWGQGTQVTVSS	no binding (tested: highest concentration not legible)	315	–	–	–
GODZILLA (RNF167) VHH of SEQ ID NO: 9 (VHH, also called A5; GODZILLA-A5) VHH: QVQLQESGGGLVQAGGSLRLSCAASGSIFRLWYMGWYRQAPGKEREFVASIGIGATTNYADSVKGRFTISRDNAKNTVYLQMNSLKPEDTAVYYCAVFGWAYSGYHDDFLYWGQGTQVTVSS	–	–	binds	3	no binding (tested: 1000 (unit not printed))

Source: patent US20240239891A1 (Stanford University, published 2024)
